This passage reports Km of steady-state kinetics of cleavage of fluorescently labeled K48-linked pentaUb, against MINDY1 WT results from paper PMC8550791.

The assay has as its target K48-linked pentaubiquitin (UniProt P0CG48).

For the substance “MINDY1 P138A (residues 110-384) (from UniProt Q8N5J2 110-384) (domain or fragment)”, the Km of steady-state kinetics of cleavage of fluorescently labeled K48-linked pentaUb, against MINDY1 WT is 3 fold lower.
